Publication PMC546161

Columns and labels:
[1] = biological target: His-Cdt1(193–447) (Xenopus) (UniProt Q9I9A7); assay: Coomassie densitometry of the purified complex on SDS-PAGE
[2] = biological target: His-Cdt1(193–447) (Xenopus) (UniProt Q9I9A7); assay: SEC + other: glycerol gradient sedimentation

Chain of UniProt Q9I9A7 (Q9I9A7 193-447): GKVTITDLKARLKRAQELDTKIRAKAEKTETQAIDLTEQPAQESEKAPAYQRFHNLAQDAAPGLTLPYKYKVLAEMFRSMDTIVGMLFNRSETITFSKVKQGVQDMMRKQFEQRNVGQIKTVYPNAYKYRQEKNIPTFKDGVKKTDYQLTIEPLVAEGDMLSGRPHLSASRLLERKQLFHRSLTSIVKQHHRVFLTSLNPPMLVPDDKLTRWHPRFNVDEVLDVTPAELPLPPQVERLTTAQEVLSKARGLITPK

mini-geminin (residues 87–168), S-tagged (domain or fragment)
stoichiometry N (mini-geminin per Cdt1(193–447)) [1]: 1.9
stoichiometry N (mini-geminin per Cdt1(193–447)) [2]: 2
